The results in this text go back to the supplement of paper PMC9170038.

In the data set the test system is MS2 coat protein. Kind of data set: apparent KD of MS2 coat protein; designed switch direction (-1 OFF switch, 1 ON switch): 1; higher = weaker reporter binding. The essentials: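 For each design, the apparent KD is the median over clusters of curves fitted to normalised cluster fluorescence. Clusters held RNA switches with common flanks, transcribed on Illumina chips by stalled E. coli RNA polymerase. These were titrated with SNAP-549-labelled MS2 coat protein, doubling from 0.7 or 1.5 nM to 3 µM, without input, with 200 uM small-molecule ligand, or with an oligonucleotide input.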

[1] abbreviates: Eterna round: R95, input ligand: FMN 200 uM.
The mark [2] stands for this setting: Eterna round: R95, input ligand: microRNA oligo, concentration not stated.
Setting [3] is: Eterna round: R95, input ligand: none.
Where [4] appears, read: input ligand: microRNA oligo, concentration not stated.

Turning to “AGUAUACAUGAGGAUCACCCAUGUCAGUAACUGACAGGAUAUGCGUUGCAUCACUGUAAUGCAGAAGGGUCUUGUA [Same State 1 - Mod of JMF's solution 1] (puzzle: Same State 1)”, the “apparent KD of MS2 coat protein” value is 98.2 nM under setting [1], 181 nM under setting [2] and 415 nM under setting [3].
“GAGCCAGUCCGAGGAUAUUACAUGAGGAUCACCCAUGUAGGCUCAGAAAAGAAAAGAGAGCCUUGGGAGAAGGCGGACUGGCUC [Xeonanisa<<9] (Eterna round: R96, puzzle: Same State NG 2)”: the “apparent KD of MS2 coat protein” value runs as follows: (input ligand: FMN 200 uM) 8.19 nM; under setting [4], 20.1 nM; (input ligand: none) 39.1 nM.
On the same counts, the results for “AUGGUGCAGGUACAGGAUAUGUUGCUCGUAACAUGAGGAUCACCCAUGUACCUAUGAGAUUAAAUGCAGAAGGGUGCACACCAAA [Mat - Same State 2 - Mod of UCT - D90] (Eterna round: R96, puzzle: Same State 2)” are 38.1 nM, 224 nM and 1350 nM.
Take “GUGCUCGUGUGAGGAUAUGUUGCCGGGUCGGCUGCAGAAGGUACUAUUAUACAUGAGGAUCACCCAUGUCGCUUUUCUCCGGUA [salish99_SSNG1_r04_921] (Eterna round: R96, puzzle: Same State NG 1)”: the “apparent KD of MS2 coat protein” value (input ligand: FMN 200 uM) stood at 88 nM, the “apparent KD of MS2 coat protein” value under setting [4] is 49.6 nM and the “apparent KD of MS2 coat protein” value (input ligand: none) was 73.5 nM.
Taken in the same sequence, the figures for “GAGAGACGAUUAGGAUAUCCGGUGAUAAUGAUAGGAGAAGGAAUUGACAUGAGGAUCACCCAUGUAGGAAUAAUCCAGAGAGAG [Parity 25 - Jieux - Same State NG 1] (Eterna round: R96, puzzle: Same State NG 1)” were 51.5 nM, 28.5 nM and 48.8 nM.
Taken in the same sequence, the figures for “AGGCUCAGACGAGGAUAUGAUCAUGGCGCUUCGGCGCAUACAUGAGGAUCACCCAUGUAAAGUGAUCAGAAGGUGUCUGAGCCA [SSNG2/7-B1] (Eterna round: R96, puzzle: Same State NG 2)” were 13.9 nM, 11 nM and 16.1 nM.
On to “AGUCCAGCCUGAGCUGGACAAAAGCAUGUACAUGAGGAUCACCCAUGUCAUGUAUAAGCUUUUUGCUCGUUUUAAUA [Zipper 49 - 16] (puzzle: Sensor for hsa-mir-208a)”, for which the “apparent KD of MS2 coat protein” value was 19.9 nM under setting [1], 10.7 nM under setting [2] and 19 nM under setting [3].
Take “UUGAGAUGUACAGGAUAUGGUGAGGAUCACCCACUAGAAGGGUGCACAUGUGAAUCGGACAUGAGGAUCACCCAUGUUGGGCGU (Eterna round: R96, puzzle: Same State NG 1)”: the “apparent KD of MS2 coat protein” value worked out at 108 nM (input ligand: FMN 200 uM), 224 nM under setting [4] and 209 nM (input ligand: none).
Taken in the same sequence, the figures for “AGAUGUUAAUUAGGAUAUGGUCACAUGAGGAUCACCCAUGUAACGAAGAUACGAUGUGGUCAAGACUAGAAGGGAUCGCUAACA [SameState NG2 #73] (Eterna round: R96, puzzle: Same State NG 2)” were 40.5 nM, 47.4 nM and 55.3 nM.
Turning to “CCGGAUAAUGGAGGAUAUGGAGCCUUAUUGGCUCCAGAAGGCUAACAUGAGGAUCACCCAUGUAAUCCGGCGGUCAAUAGACCG [Eli NG1ss - 65] (Eterna round: R96, puzzle: Same State NG 1)”, the “apparent KD of MS2 coat protein” value runs as follows: (input ligand: FMN 200 uM) 12 nM; under setting [4], 15 nM; (input ligand: none) 25.5 nM.
With “ACAAAGAACACAGGAUAUCGGAAAGGAAGUGUACGAGAAGGGUGGUCAACAGUACAUGAGGAUCACCCAUGUGGUGGAUGGCAA [PowerStrip SSNG 1.12] (Eterna round: R96, puzzle: Same State NG 1)”, the “apparent KD of MS2 coat protein” value is 177 nM (input ligand: FMN 200 uM), 2.42 nM under setting [4] and 1440 nM (input ligand: none).
